# Source: paper PMC10397247
# T1: 4H3112-bH
# T1 chain: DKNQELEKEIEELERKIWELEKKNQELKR
# T2: 4H3185-bH
# T2 chain: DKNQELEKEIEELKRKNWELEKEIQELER
# T3: 4H319-bA
# T3 chain: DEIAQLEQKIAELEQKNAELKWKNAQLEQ
# T4: 4H331-bH
# T4 chain: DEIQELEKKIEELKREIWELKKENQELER
# T5: 4H3354-bH
# T5 chain: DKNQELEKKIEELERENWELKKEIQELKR
# T6: 4H338-bH
# T6 chain: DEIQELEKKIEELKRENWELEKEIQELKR
# T7: 4H3427-bH
# T7 chain: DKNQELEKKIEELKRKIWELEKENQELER
# T8: 4H346-bH
# T8 chain: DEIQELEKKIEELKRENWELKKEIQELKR
# T9: 4H3782-bH
# T9 chain: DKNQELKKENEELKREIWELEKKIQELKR
# T10: 4H3855-bH
# T10 chain: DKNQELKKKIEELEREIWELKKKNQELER
# T11: 4H3926-bH
# T11 chain: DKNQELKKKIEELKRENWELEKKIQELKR
# T12: 4H4001-bH
# T12 chain: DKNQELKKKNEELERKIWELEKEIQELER
# T13: 4H4073-bH
# T13 chain: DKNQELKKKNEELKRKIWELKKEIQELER
# T14: 4H454-bH
# T14 chain: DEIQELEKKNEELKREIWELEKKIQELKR
# T15: 4H457-bH
# T15 chain: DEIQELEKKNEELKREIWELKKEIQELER
# T16: 4H568-bH
# T16 chain: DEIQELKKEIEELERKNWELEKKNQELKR
# T17: 4H575-bH
# T17 chain: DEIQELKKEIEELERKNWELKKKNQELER
# T18: 4H607-bH
# T18 chain: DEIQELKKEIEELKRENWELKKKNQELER
# T19: 4H683-bH
# T19 chain: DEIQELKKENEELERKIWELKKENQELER
# T20: 4H687-bH
# T20 chain: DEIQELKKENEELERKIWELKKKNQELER
# T21: 4H717-bH
# T21 chain: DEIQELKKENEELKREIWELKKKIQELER
# T22: 4H72-bH
# T22 chain: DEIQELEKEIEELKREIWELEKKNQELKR
# T23: 4H780-bH
# T23 chain: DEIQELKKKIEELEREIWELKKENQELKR
# T24: 4H797-bH
# T24 chain: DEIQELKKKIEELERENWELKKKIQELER
# T25: 4H855-bH
# T25 chain: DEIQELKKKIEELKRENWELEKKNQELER
# T26: 4H883-bH
# T26 chain: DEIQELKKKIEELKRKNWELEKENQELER
# T27: 4H908-bH
# T27 chain: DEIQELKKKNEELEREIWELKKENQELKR
# T28: 4H918-bH
# T28 chain: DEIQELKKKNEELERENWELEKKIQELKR
# T29: 4H953-bH
# T29 chain: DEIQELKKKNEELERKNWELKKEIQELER
# T30: 4H967-bH
# T30 chain: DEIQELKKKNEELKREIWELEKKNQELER
# T31: 4H968-bH
# T31 chain: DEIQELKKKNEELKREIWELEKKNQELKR
# T32: APC1015-AA
# T32 chain: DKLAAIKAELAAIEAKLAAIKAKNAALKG
# T33: APC1434-AA
# T33 chain: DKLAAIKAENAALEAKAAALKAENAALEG
# T34: APC2237-AA
# T34 chain: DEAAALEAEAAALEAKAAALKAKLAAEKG
# T35: APC232-AA
# T35 chain: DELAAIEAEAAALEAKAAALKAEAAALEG
# T36: APC2405-AA
# T36 chain: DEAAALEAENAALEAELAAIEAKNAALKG
# T37: APC3645-AA
# T37 chain: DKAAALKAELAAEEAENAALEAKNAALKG
# T38: APC4011-AA
# T38 chain: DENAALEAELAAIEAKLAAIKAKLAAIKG
# T39: APC4264-AA
# T39 chain: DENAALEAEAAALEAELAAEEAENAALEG
# T40: APC4436-AA
# T40 chain: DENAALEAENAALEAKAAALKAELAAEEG
# T41: APC5383-AA
# T41 chain: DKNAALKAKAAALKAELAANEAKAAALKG
# T42: APC6108-AA
# T42 chain: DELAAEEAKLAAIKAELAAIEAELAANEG
# T43: APC7099-AA
# T43 chain: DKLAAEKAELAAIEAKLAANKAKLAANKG
# T44: APC8191-AA
# T44 chain: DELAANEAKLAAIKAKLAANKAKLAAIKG
# T45: APC8910-AA
# T45 chain: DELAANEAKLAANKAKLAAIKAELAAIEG
# T46: APC9096-AA
# T46 chain: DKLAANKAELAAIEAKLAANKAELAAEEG
# T47: APC9319-AA
# T47 chain: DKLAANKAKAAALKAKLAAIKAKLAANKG
# T48: P8A-bH
# T48 chain: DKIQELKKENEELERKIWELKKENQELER
# T49: P9A-bH
# T49 chain: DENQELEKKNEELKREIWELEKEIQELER
# T50: P8A-bA
# T50 chain: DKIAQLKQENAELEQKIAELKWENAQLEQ
# T51: P9A-bA
# T51 chain: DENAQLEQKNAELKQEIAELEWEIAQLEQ
# Assays:
# 4H3112-bH = biological target: T1, 4H3112-bH; experiment: two-hybrid library CCNG1;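 further: natural log of median RNA to DNA barcode read ratio; higher means stronger binding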
# 4H3185-bH = biological target: T2, 4H3185-bH; experiment: two-hybrid library CCNG1;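 further: natural log of median RNA to DNA barcode read ratio; higher means stronger binding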
# 4H319-bA = biological target: T3, 4H319-bA; experiment: two-hybrid library CCNG1;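 further: natural log of median RNA to DNA barcode read ratio; higher means stronger binding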
# 4H331-bH = biological target: T4, 4H331-bH; experiment: two-hybrid library CCNG1;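 further: natural log of median RNA to DNA barcode read ratio; higher means stronger binding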
# 4H3354-bH = biological target: T5, 4H3354-bH; experiment: two-hybrid library CCNG1
# 4H338-bH = biological target: T6, 4H338-bH; experiment: two-hybrid library CCNG1
# 4H3427-bH = biological target: T7, 4H3427-bH; experiment: two-hybrid library CCNG1
# 4H346-bH = biological target: T8, 4H346-bH; experiment: two-hybrid library CCNG1
# 4H3782-bH = biological target: T9, 4H3782-bH; experiment: two-hybrid library CCNG1
# 4H3855-bH = biological target: T10, 4H3855-bH; experiment: two-hybrid library CCNG1
# 4H3926-bH = biological target: T11, 4H3926-bH; experiment: two-hybrid library CCNG1
# 4H4001-bH = biological target: T12, 4H4001-bH; experiment: two-hybrid library CCNG1
# 4H4073-bH = biological target: T13, 4H4073-bH; experiment: two-hybrid library CCNG1
# 4H454-bH = biological target: T14, 4H454-bH; experiment: two-hybrid library CCNG1
# 4H457-bH = biological target: T15, 4H457-bH; experiment: two-hybrid library CCNG1
# 4H568-bH = biological target: T16, 4H568-bH; experiment: two-hybrid library CCNG1
# 4H575-bH = biological target: T17, 4H575-bH; experiment: two-hybrid library CCNG1
# 4H607-bH = biological target: T18, 4H607-bH; experiment: two-hybrid library CCNG1
# 4H683-bH = biological target: T19, 4H683-bH; experiment: two-hybrid library CCNG1
# 4H687-bH = biological target: T20, 4H687-bH; experiment: two-hybrid library CCNG1
# 4H717-bH = biological target: T21, 4H717-bH; experiment: two-hybrid library CCNG1
# 4H72-bH = biological target: T22, 4H72-bH; experiment: two-hybrid library CCNG1
# 4H780-bH = biological target: T23, 4H780-bH; experiment: two-hybrid library CCNG1
# 4H797-bH = biological target: T24, 4H797-bH; experiment: two-hybrid library CCNG1
# 4H855-bH = biological target: T25, 4H855-bH; experiment: two-hybrid library CCNG1
# 4H883-bH = biological target: T26, 4H883-bH; experiment: two-hybrid library CCNG1
# 4H908-bH = biological target: T27, 4H908-bH; experiment: two-hybrid library CCNG1
# 4H918-bH = biological target: T28, 4H918-bH; experiment: two-hybrid library CCNG1
# 4H953-bH = biological target: T29, 4H953-bH; experiment: two-hybrid library CCNG1
# 4H967-bH = biological target: T30, 4H967-bH; experiment: two-hybrid library CCNG1
# 4H968-bH = biological target: T31, 4H968-bH; experiment: two-hybrid library CCNG1
# APC1015-AA = biological target: T32, APC1015-AA; experiment: two-hybrid library CCmax; details: mean of both orientations
# APC1434-AA = biological target: T33, APC1434-AA; experiment: two-hybrid library CCmax; details: mean of both orientations
# APC2237-AA = biological target: T34, APC2237-AA; experiment: two-hybrid library CCmax; details: mean of both orientations
# APC232-AA = biological target: T35, APC232-AA; experiment: two-hybrid library CCmax; details: mean of both orientations
# APC2405-AA = biological target: T36, APC2405-AA; experiment: two-hybrid library CCmax; details: mean of both orientations
# APC3645-AA = biological target: T37, APC3645-AA; experiment: two-hybrid library CCmax; details: mean of both orientations
# APC4011-AA = biological target: T38, APC4011-AA; experiment: two-hybrid library CCmax; details: mean of both orientations
# APC4264-AA = biological target: T39, APC4264-AA; experiment: two-hybrid library CCmax
# APC4436-AA = biological target: T40, APC4436-AA; experiment: two-hybrid library CCmax; details: mean of both orientations
# APC5383-AA = biological target: T41, APC5383-AA; experiment: two-hybrid library CCmax; details: mean of both orientations
# APC6108-AA = biological target: T42, APC6108-AA; experiment: two-hybrid library CCmax; details: mean of both orientations
# APC7099-AA = biological target: T43, APC7099-AA; experiment: two-hybrid library CCmax; details: mean of both orientations
# APC8191-AA = biological target: T44, APC8191-AA; experiment: two-hybrid library CCmax; details: mean of both orientations
# APC8910-AA = biological target: T45, APC8910-AA; experiment: two-hybrid library CCmax; details: mean of both orientations
# APC9096-AA = biological target: T46, APC9096-AA; experiment: two-hybrid library CCmax; details: mean of both orientations
# APC9319-AA = biological target: T47, APC9319-AA; experiment: two-hybrid library CCmax; details: mean of both orientations
# P8A-bH = biological target: T48, P8A-bH; experiment: two-hybrid library CCNG1
# P9A-bH = biological target: T49, P9A-bH; experiment: two-hybrid library CCNG1
# P8A-bA = biological target: T50, P8A-bA; experiment: two-hybrid library CCNG1
# P9A-bA = biological target: T51, P9A-bA; experiment: two-hybrid library CCNG1
binder,measurement,setting,value
DKNQELEKEIEELERKIWELEKKNQELKR [4H3112-bH],interaction score,4H3112-bH,1.18
same,interaction score,4H3185-bH,-0.575
same,interaction score,4H319-bA,-3.07
same,interaction score,4H331-bH,0.991
same,interaction score,4H3354-bH,0.156
same,interaction score,4H338-bH,1.72
same,interaction score,4H3427-bH,1.07
same,interaction score,4H346-bH,0.584
same,interaction score,4H3782-bH,0.0549
same,interaction score,4H3855-bH,0.754
same,interaction score,4H3926-bH,0.42
same,interaction score,4H4001-bH,0.971
same,interaction score,4H4073-bH,1.57
same,interaction score,4H454-bH,0.624
same,interaction score,4H457-bH,-1.29
same,interaction score,4H568-bH,-0.443
same,interaction score,4H575-bH,-0.872
same,interaction score,4H607-bH,0.768
same,interaction score,4H683-bH,0.204
same,interaction score,4H687-bH,-0.713
same,interaction score,4H717-bH,-0.259
same,interaction score,4H72-bH,0.428
same,interaction score,4H780-bH,0.704
same,interaction score,4H797-bH,-0.951
same,interaction score,4H855-bH,-2.78
same,interaction score,4H883-bH,0.871
same,interaction score,4H908-bH,-0.43
same,interaction score,4H918-bH,0.72
same,interaction score,4H953-bH,-0.641
same,interaction score,4H967-bH,1.34
same,interaction score,4H968-bH,1.05
DEIAALKAKIAALEAKIAALEAKNAALEG [4H807-AA],interaction score,APC1015-AA,-0.714
same,interaction score,APC1434-AA,-1.82
same,interaction score,APC2237-AA,-1.21
same,interaction score,APC232-AA,-1.73
same,interaction score,APC2405-AA,-1.49
same,interaction score,APC3645-AA,-1.3
same,interaction score,APC4011-AA,1.45
same,interaction score,APC4264-AA,-1.72
same,interaction score,APC4436-AA,-1.65
same,interaction score,APC5383-AA,-1.89
same,interaction score,APC6108-AA,-1.43
same,interaction score,APC7099-AA,-1.32
same,interaction score,APC8191-AA,-2.1
same,interaction score,APC8910-AA,-1.59
same,interaction score,APC9096-AA,-1.75
same,interaction score,APC9319-AA,-1.71
DKIQELKKENEELERKIWELKKENQELER [P8A-bH],interaction score,P8A-bH,0.54
same,interaction score,P9A-bH,-0.34
DKIAQLKQENAELEQKIAELKWENAQLEQ [P8A-bA],interaction score,P8A-bA,-0.497
same,interaction score,P9A-bA,-0.256
